Results reported in the supplement of paper PMC9116672.
± gives the standard deviation of the averaged measurements or the uncertainty stated by the source.

Legend:
[1] = duplex formation entropy ΔS (Van't Hoff fit of HRM Tm); higher = smaller entropy loss on duplex formation; settings: temperature for dG: 50 °C, NaCl: 500 mM (unadjusted)
Summary of the method: (§1)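 Four replicate samples of each duplex, annealed 1:1 from phosphodiester or phosphorothioate strands (the latter mixed Rp/Sp), were melted at 1–20 μM in 1× NNE buffer (500 mM NaCl, pH 7.0) with 1× EvaGreen, heating from 37 to 97°C at 0.1°C/s on a LightCycler96. Tm is the peak of -dF/dT, and a linear Van't Hoff regression of 1/Tm against ln(CT/4) gives enthalpy, entropy and extrapolated free energy, with no salt adjustment and errors given as fit standard deviations. The free energy extrapolation is to 50°C.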

[2] = duplex formation free energy ΔG50 (Van't Hoff fit of HRM Tm); higher = less stable duplex; settings: temperature for dG: 50 °C, NaCl: 500 mM (unadjusted)
Summary of the method: as §1

[3] = duplex melting temperature (HRM, EvaGreen); higher = more stable duplex
Summary of the method: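 After 1:1 annealing at 25 μM, complementary phosphodiester or phosphorothioate strands (Rp/Sp mixtures) were brought to 1–20 μM duplex in NNE buffer (500 mM NaCl, pH 7.0) with 1× EvaGreen and heated at 0.1°C/s from 37°C to 97°C while a LightCycler96 monitored fluorescence (470/514 nm). The melting temperature is the negative dF/dT peak reported by the instrument software, averaged over replicates with a clear peak.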

[4] = duplex formation enthalpy ΔH (Van't Hoff fit of HRM Tm); higher = less exothermic duplex formation; settings: temperature for dG: 50 °C, NaCl: 500 mM (unadjusted)
Summary of the method: as §1

[5] = backbone: PO-PO (both strands phosphodiester DNA)
[6] = backbone: PS-PO (listed strand fully phosphorothioate, complement phosphodiester)
[7] = backbone: PS-PS (both strands fully phosphorothioate)
[8] = duplex concentration 1 µM, backbone: PS-PO (listed strand fully phosphorothioate, complement phosphodiester)
[9] = duplex concentration 1 µM, backbone: PS-PS (both strands fully phosphorothioate)
[10] = duplex concentration 2.5 µM, backbone: PO-PO (both strands phosphodiester DNA)
[11] = duplex concentration 2.5 µM, backbone: PS-PO (listed strand fully phosphorothioate, complement phosphodiester)
[12] = duplex concentration 2.5 µM, backbone: PS-PS (both strands fully phosphorothioate)
[13] = duplex concentration 5 µM, backbone: PO-PO (both strands phosphodiester DNA)
[14] = duplex concentration 5 µM, backbone: PS-PO (listed strand fully phosphorothioate, complement phosphodiester)
[15] = duplex concentration 5 µM, backbone: PS-PS (both strands fully phosphorothioate)
[16] = duplex concentration 7.5 µM, backbone: PO-PO (both strands phosphodiester DNA)
[17] = duplex concentration 7.5 µM, backbone: PS-PO (listed strand fully phosphorothioate, complement phosphodiester)
[18] = duplex concentration 7.5 µM, backbone: PS-PS (both strands fully phosphorothioate)
[19] = duplex concentration 10 µM, backbone: PO-PO (both strands phosphodiester DNA)
[20] = duplex concentration 10 µM, backbone: PS-PO (listed strand fully phosphorothioate, complement phosphodiester)
[21] = duplex concentration 10 µM, backbone: PS-PS (both strands fully phosphorothioate)
[22] = duplex concentration 15 µM, backbone: PO-PO (both strands phosphodiester DNA)
[23] = duplex concentration 15 µM, backbone: PS-PO (listed strand fully phosphorothioate, complement phosphodiester)
[24] = duplex concentration 15 µM, backbone: PS-PS (both strands fully phosphorothioate)
[25] = duplex concentration 20 µM, backbone: PO-PO (both strands phosphodiester DNA)
[26] = duplex concentration 20 µM, backbone: PS-PO (listed strand fully phosphorothioate, complement phosphodiester)
[27] = duplex concentration 20 µM, backbone: PS-PS (both strands fully phosphorothioate)
[28] = duplex concentration 1 µM, backbone: PO-PO (both strands phosphodiester DNA)

Sequence: CTACCAGCGGCGCCGTT
- duplex formation entropy ΔS [1, 5]: -235 ± 13 cal/mol/K
- duplex formation entropy ΔS [1, 6]: -163 ± 6.5 cal/mol/K
- duplex formation entropy ΔS [1, 7]: -185 ± 5.4 cal/mol/K
- duplex formation free energy ΔG50 [2, 5]: -70 ± 1.67 kJ/mol
- duplex formation free energy ΔG50 [2, 6]: -55.8 ± 0.669 kJ/mol
- duplex formation free energy ΔG50 [2, 7]: -53.1 ± 0.418 kJ/mol
- duplex melting temperature [3, 8]: 68.2 ± 0.97 °C
- duplex melting temperature [3, 9]: 63.52 ± 0.26 °C
- duplex melting temperature [3, 10]: 78.66 ± 0.28 °C
- duplex melting temperature [3, 11]: 71.69 ± 0.5 °C
- duplex melting temperature [3, 12]: 66.46 ± 0.23 °C
- duplex melting temperature [3, 13]: 80.52 ± 0.35 °C
- duplex melting temperature [3, 14]: 74.62 ± 0.28 °C
- duplex melting temperature [3, 15]: 68.88 ± 0.19 °C
- duplex melting temperature [3, 16]: 81.81 ± 0.23 °C
- duplex melting temperature [3, 17]: 75.97 ± 0.31 °C
- duplex melting temperature [3, 18]: 70.02 ± 0.24 °C
- duplex melting temperature [3, 19]: 82.55 ± 0.18 °C
- duplex melting temperature [3, 20]: 76.92 ± 0.17 °C
- duplex melting temperature [3, 21]: 71 ± 0.18 °C
- duplex melting temperature [3, 22]: 83.52 ± 0.2 °C
- duplex melting temperature [3, 23]: 78.15 ± 0.26 °C
- duplex melting temperature [3, 24]: 72.23 ± 0.12 °C
- duplex melting temperature [3, 25]: 84.24 ± 0.2 °C
- duplex melting temperature [3, 26]: 79.05 ± 0.47 °C
- duplex melting temperature [3, 27]: 73.06 ± 0.32 °C
- duplex formation enthalpy ΔH [4, 5]: -388 ± 18.8 kJ/mol
- duplex formation enthalpy ΔH [4, 6]: -277 ± 9.62 kJ/mol
- duplex formation enthalpy ΔH [4, 7]: -303 ± 7.53 kJ/mol

Sequence: AATGAGGAGTGAAATGG
- duplex formation entropy ΔS [1, 5]: -190 ± 9.7 cal/mol/K
- duplex formation entropy ΔS [1, 6]: -201 ± 3.6 cal/mol/K
- duplex formation entropy ΔS [1, 7]: -198 ± 4 cal/mol/K
- duplex formation free energy ΔG50 [2, 5]: -50.2 ± 0.669 kJ/mol
- duplex formation free energy ΔG50 [2, 6]: -45.33 ± 0.155 kJ/mol
- duplex formation free energy ΔG50 [2, 7]: -36.89 ± 0.0502 kJ/mol
- duplex melting temperature [3, 28]: 61.5 °C
- duplex melting temperature [3, 8]: 54.3 ± 0.28 °C
- duplex melting temperature [3, 9]: 45.74 ± 0.18 °C
- duplex melting temperature [3, 10]: 62.9 ± 0.89 °C
- duplex melting temperature [3, 11]: 57.29 ± 0.22 °C
- duplex melting temperature [3, 12]: 48.55 ± 0.12 °C
- duplex melting temperature [3, 13]: 65.1 ± 0.71 °C
- duplex melting temperature [3, 14]: 59.317 ± 0.05 °C
- duplex melting temperature [3, 15]: 50.54 ± 0.062 °C
- duplex melting temperature [3, 16]: 66.06 ± 0.59 °C
- duplex melting temperature [3, 17]: 60.42 ± 0.089 °C
- duplex melting temperature [3, 18]: 51.494 ± 0.05 °C
- duplex melting temperature [3, 19]: 67.14 ± 0.48 °C
- duplex melting temperature [3, 20]: 61.271 ± 0.056 °C
- duplex melting temperature [3, 21]: 52.36 ± 0.1 °C
- duplex melting temperature [3, 22]: 68.46 ± 0.62 °C
- duplex melting temperature [3, 23]: 62.43 ± 0.043 °C
- duplex melting temperature [3, 24]: 53.52 ± 0.054 °C
- duplex melting temperature [3, 25]: 69.63 ± 0.3 °C
- duplex melting temperature [3, 26]: 63.28 ± 0.098 °C
- duplex melting temperature [3, 27]: 54.406 ± 0.047 °C
- duplex formation enthalpy ΔH [4, 5]: -307 ± 13.8 kJ/mol
- duplex formation enthalpy ΔH [4, 6]: -317 ± 5.02 kJ/mol
- duplex formation enthalpy ΔH [4, 7]: -305 ± 5.44 kJ/mol

Sequence: CGGGATTTCTGGCATCATTGTCCT
- duplex formation entropy ΔS [1, 5]: -332 ± 20 cal/mol/K
- duplex formation entropy ΔS [1, 6]: -384 ± 18 cal/mol/K
- duplex formation entropy ΔS [1, 7]: -294 ± 11 cal/mol/K
- duplex formation free energy ΔG50 [2, 5]: -79.6 ± 2.43 kJ/mol
- duplex formation free energy ΔG50 [2, 6]: -71.7 ± 1.59 kJ/mol
- duplex formation free energy ΔG50 [2, 7]: -54.5 ± 0.669 kJ/mol
- duplex melting temperature [3, 28]: 76 ± 0.48 °C
- duplex melting temperature [3, 8]: 67.9 ± 0.64 °C
- duplex melting temperature [3, 9]: 59.9 ± 0.76 °C
- duplex melting temperature [3, 10]: 77.25 ± 0.45 °C
- duplex melting temperature [3, 11]: 69.22 ± 0.5 °C
- duplex melting temperature [3, 12]: 61.87 ± 0.59 °C
- duplex melting temperature [3, 13]: 78.194 ± 0.017 °C
- duplex melting temperature [3, 14]: 70.21 ± 0.48 °C
- duplex melting temperature [3, 15]: 63.36 ± 0.43 °C
- duplex melting temperature [3, 16]: 79.16 ± 0.14 °C
- duplex melting temperature [3, 17]: 70.82 ± 0.46 °C
- duplex melting temperature [3, 18]: 64.38 ± 0.25 °C
- duplex melting temperature [3, 19]: 79.99 ± 0.12 °C
- duplex melting temperature [3, 20]: 71.58 ± 0.27 °C
- duplex melting temperature [3, 21]: 65.03 ± 0.12 °C
- duplex melting temperature [3, 22]: 80.96 ± 0.077 °C
- duplex melting temperature [3, 23]: 72.42 ± 0.15 °C
- duplex melting temperature [3, 24]: 65.67 ± 0.24 °C
- duplex melting temperature [3, 25]: 81.6 ± 0.082 °C
- duplex melting temperature [3, 26]: 72.86 ± 0.12 °C
- duplex melting temperature [3, 27]: 66.1 ± 0.11 °C
- duplex formation enthalpy ΔH [4, 5]: -528 ± 29.3 kJ/mol
- duplex formation enthalpy ΔH [4, 6]: -591 ± 25.9 kJ/mol
- duplex formation enthalpy ΔH [4, 7]: -452 ± 16.3 kJ/mol

Sequence: CGTGTGGATAATTAGCT
- duplex formation entropy ΔS [1, 5]: -220 ± 5.9 cal/mol/K
- duplex formation entropy ΔS [1, 6]: -217 ± 7.2 cal/mol/K
- duplex formation entropy ΔS [1, 7]: -221 ± 9.2 cal/mol/K
- duplex formation free energy ΔG50 [2, 5]: -53.01 ± 0.414 kJ/mol
- duplex formation free energy ΔG50 [2, 6]: -45.43 ± 0.31 kJ/mol
- duplex formation free energy ΔG50 [2, 7]: -36.64 ± 0.1 kJ/mol
- duplex melting temperature [3, 28]: 61.98 ± 0.083 °C
- duplex melting temperature [3, 9]: 45.73 ± 0.44 °C
- duplex melting temperature [3, 10]: 64.1 ± 0.3 °C
- duplex melting temperature [3, 11]: 56.74 ± 0.17 °C
- duplex melting temperature [3, 12]: 48.55 ± 0.15 °C
- duplex melting temperature [3, 13]: 65.87 ± 0.1 °C
- duplex melting temperature [3, 14]: 58.92 ± 0.14 °C
- duplex melting temperature [3, 15]: 50.38 ± 0.16 °C
- duplex melting temperature [3, 16]: 66.87 ± 0.1 °C
- duplex melting temperature [3, 17]: 59.81 ± 0.096 °C
- duplex melting temperature [3, 18]: 51.21 ± 0.21 °C
- duplex melting temperature [3, 19]: 67.8 ± 0.11 °C
- duplex melting temperature [3, 20]: 60.627 ± 0.006 °C
- duplex melting temperature [3, 21]: 51.88 ± 0.24 °C
- duplex melting temperature [3, 22]: 68.959 ± 0.05 °C
- duplex melting temperature [3, 23]: 61.686 ± 0.014 °C
- duplex melting temperature [3, 24]: 52.84 ± 0.21 °C
- duplex melting temperature [3, 25]: 69.9 ± 0.083 °C
- duplex melting temperature [3, 26]: 62.48 ± 0.14 °C
- duplex melting temperature [3, 27]: 53.67 ± 0.26 °C
- duplex formation enthalpy ΔH [4, 5]: -351 ± 8.37 kJ/mol
- duplex formation enthalpy ΔH [4, 6]: -339 ± 10 kJ/mol
- duplex formation enthalpy ΔH [4, 7]: -336 ± 12.6 kJ/mol
